Assay results as given in PMC5709467, “Solution structure and interaction with copper in vitro and in living cells of the first BIR domain of XIAP” (Scientific Reports, 2017).

Experiments:
[1] = target: D71N/R72E mutant of BIR1 (1-105) of XIAP (human) (UniProt P98170); experiment: SEC; oxidised protein (C12 disulfide), analytical gel filtration on Superdex 75 10/200 GL, 20 mM Bis-Tris pH 6.5
[2] = target: D71N/R72E mutant of BIR1 (1-105) of XIAP (human) (UniProt P98170); experiment: MALDI-TOF mass spectrometry; oxidised D71N/R72E BIR1; covalent (disulfide-linked) dimer; compared with a sample treated with DTT
[3] = target: the molecule itself; experiment: NMR 15N relaxation (R2/R1, rotational correlation time); reduced protein, about 0.3 mM, 20 mM Bis-Tris pH 6.5, 298 K

“D71N/R72E mutant of BIR1 (1-105) of XIAP (from UniProt P98170 1-105) (domain or fragment)” gave a stoichiometry N [1] of 2 and a stoichiometry N [2] of 2.

B1: Wild-type BIR1 (1-105 aa), first BIR domain of XIAP (domain or fragment, human, UniProt P98170 1-105, looked up)
chain: MTFNSFEGSKTCVPADINKEEEFVEEFNRLKTFANFPSGSPVSASTLARAGFLYTGEGDTVRCFSCHAAVDRWQYGDSAVGRHRKVSPNCRFINGFYLENSATQS
notes: 15N- or 15N,13C-labelled for NMR; cloned into pET-3a; In the oxidised state C12 of the two subunits form a disulfide bond; also called WT BIR1
In the case of B1, the “stoichiometry N” value [3] is reported as 2.
